Measurements from publication PMC9938351.

Tests used:
Assay in all cases: ITC
[1] = target: SARS-CoV-2 ubiquitin-like domain 1 (Ubl1) of Nsp3 (residues 1–111) (SARS-CoV-2)
[2] = target: SARS-CoV-2 Ubl1 E26A (SARS-CoV-2)
[3] = target: SARS-CoV-2 Ubl1 D110A (SARS-CoV-2)
[4] = target: SARS-CoV-2 Ubl1 Y103A (SARS-CoV-2)
[5] = target: SARS-CoV-2 Ubl1 E95A (SARS-CoV-2)

Substance	Kd [1] [µM]	dH [1] [kcal/mol]	stoichiometry N [1]	Kd [2] [µM]	dH [2] [kcal/mol]	stoichiometry N [2]	Kd [3] [µM]	dH [3] [kcal/mol]	stoichiometry N [3]	Kd [4] [µM]	dH [4] [kcal/mol]	stoichiometry N [4]	Kd [5] [µM]	dH [5] [kcal/mol]	stoichiometry N [5]
SARS-CoV-2 N-NTD R92A (from UniProt P0DTC9 47-174) (domain or fragment)	55.7	-3.18	0.58												
SARS-CoV-2 N protein N-terminal domain (NTD, residues 47–174) (from UniProt P0DTC9 47-174) (domain or fragment)	17	-2.7	0.73	78.6	-3.37	0.74	50.8	-2.65	0.64	57.7	-0.741	0.57	53.1	-1.24	0.75
